Results taken from paper PMC11861162.

Biological target: SHIVC109P7 gp140 protein (soluble Env) (HIV-1 subtype C (Env of SHIVC109P7))
Test: native gel or EMSA

Substance: SHIVC109P7 gp140 protein (soluble Env) (domain or fragment)
- stoichiometry N: 3
